The supplement of paper PMC9233669
Variants at the floor of the assay were thinned out.

Columns and labels:
biotinyl-Leu-oxazolone = assay: self-aminoacylation, catalytic enhancement (BLO) (fold over background); higher = more active; k-Seq, kA / k0A0; sequences stand for … in GGGAAUGGAUCCACAUCUACGAAUUC…UUCACUGCAGACUUGACGAAGCUG
How it was run: (§1)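 Each biotinyl-aminoacyl-oxazolone, at 2–1250 μM, was incubated with mutagenized RNA pools (0.43 μM) carrying a 21-nt variable region. The 50 μL reactions contained HEPES/NaCl/KCl/MgCl2/CaCl2 buffer with 5% acetonitrile at pH 6.9–7.0 and ran for 90 minutes at room temperature. After streptavidin capture, RNA was measured by qPCR in triplicate and by Illumina sequencing, and catalytic enhancement was calculated as median kA over the uncatalyzed rate from a pseudo-first-order fit of per-sequence fraction reacted.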

biotinyl-Ile-oxazolone = assay: self-aminoacylation, catalytic enhancement (BIO) (fold over background); higher = more active; k-Seq, kA / k0A0; sequences stand for … in GGGAAUGGAUCCACAUCUACGAAUUC…UUCACUGCAGACUUGACGAAGCUG
How it was run: as §1

biotinyl-Phe-oxazolone = assay: self-aminoacylation, catalytic enhancement (BFO) (fold over background); higher = more active; k-Seq, kA / k0A0; sequences stand for … in GGGAAUGGAUCCACAUCUACGAAUUC…UUCACUGCAGACUUGACGAAGCUG
How it was run: as §1

biotinyl-Trp-oxazolone = assay: self-aminoacylation, catalytic enhancement (BWO) (fold over background); higher = more active; k-Seq, kA / k0A0; sequences stand for … in GGGAAUGGAUCCACAUCUACGAAUUC…UUCACUGCAGACUUGACGAAGCUG
How it was run: as §1

biotinyl-Met-oxazolone = assay: self-aminoacylation, catalytic enhancement (BMO) (fold over background); higher = more active; k-Seq, kA / k0A0; sequences stand for … in GGGAAUGGAUCCACAUCUACGAAUUC…UUCACUGCAGACUUGACGAAGCUG
How it was run: as §1

biotinyl-Val-oxazolone = assay: self-aminoacylation, catalytic enhancement (BVO) (fold over background); higher = more active; k-Seq, kA / k0A0; sequences stand for … in GGGAAUGGAUCCACAUCUACGAAUUC…UUCACUGCAGACUUGACGAAGCUG
How it was run: as §1

Row | Sequence | self-aminoacylation (biotinyl-Leu-oxazolone) | self-aminoacylation (biotinyl-Ile-oxazolone) | self-aminoacylation (biotinyl-Phe-oxazolone) | self-aminoacylation (biotinyl-Trp-oxazolone) | self-aminoacylation (biotinyl-Met-oxazolone) | self-aminoacylation (biotinyl-Val-oxazolone)
1 | AUUCACCUAGGUCAUGGGCUG [Fam2.2 aminoacylation ribozyme variant] | 1.66 | 1.63 | 0.402 | 1.17 | 1.54 | 1.33
2 | AUUCACCUAGGUCAUGGGGAG [Fam2.2 aminoacylation ribozyme variant] | 0.853 | 1.03 | 0.544 | 1.56 | 0.889 | 0.979
3 | AUUCACCUAGGUCAUUGCGUG [Fam2.2 aminoacylation ribozyme variant] | 21.7 | 8.82 | 123 | 15.8 | 15.7 | 7.69
4 | AUUCACCUAGGUCAUUGGCUG [Fam2.2 aminoacylation ribozyme variant] | 1.33 | 1.21 | 3.54 | 0.756 | 1.32 | 1.4
5 | AUUCACCUAGGUCAUUGGGUG [Fam2.2 aminoacylation ribozyme variant] | 4.03 | 2.31 | 20.1 | 3.18 | 3.26 | 2.29
6 | AUUCACCUAGGUCAUUUGGUG [Fam2.2 aminoacylation ribozyme variant] | 4.82 | 2.13 | 21.2 | 3.43 | 3.31 | 2.03
7 | AUUCACCUAGGUCCCCGGGUG [Fam2.2 aminoacylation ribozyme variant] | 9.96 | 5.12 | 58.4 | 7.84 | 8.22 | 4.54
8 | AUUCACCUAGGUCCUCCGGUG [Fam2.2 aminoacylation ribozyme variant] | 11.5 | 6.38 | 63.3 | 9.26 | 10.3 | 5.33
9 | AUUCACCUAGGUCCUCGGGUA [Fam2.2 aminoacylation ribozyme variant] | 1.71 | 2.44 | 1.16 | 3 | 2.26 | 2.39
10 | AUUCACCUAGGUCCUCGGUUG [Fam2.2 aminoacylation ribozyme variant] | 1.51 | 1.13 | 4.8 | 0.815 | 1.39 | 1.31
11 | AUUCACCUAGGUCGCCGGGUG [Fam2.2 aminoacylation ribozyme variant] | 3.8 | 3.4 | 18.5 | 3.38 | 3.99 | 3.25
12 | AUUCACCUAGGUCGUCGGGAG [Fam2.2 aminoacylation ribozyme variant] | 1.27 | 0.982 | 0.385 | 0.943 | 0.924 | 1.36
13 | AUUCACCUAGGUCGUCGGGCG [Fam2.2 aminoacylation ribozyme variant] | 4.5 | 3.39 | 15.2 | 2.76 | 2.56 | 3.2
14 | AUUCACCUAGGUCGUCGGGGG [Fam2.2 aminoacylation ribozyme variant] | 3.38 | 3.11 | 8.18 | 3.53 | 3.07 | 2.9
15 | AUUCACCUAGGUCGUCGGGUA [Fam2.2 aminoacylation ribozyme variant] | 2.71 | 1.85 | 6.61 | 1.95 | 2.24 | 1.95
16 | AUUCACCUAGGUCGUGGGGUG [Fam2.2 aminoacylation ribozyme variant] | 1.97 | 1.54 | 5.74 | 1.66 | 1.5 | 1.61
17 | AUUCACCUAGGUCGUUGGGUG [Fam2.2 aminoacylation ribozyme variant] | 1.52 | 1.35 | 3.95 | 1.23 | 1.42 | 1.2
18 | AUUCACCUAGGUCUUCCGGUG [Fam2.2 aminoacylation ribozyme variant] | 17.2 | 7.6 | 99.3 | 12.2 | 11.2 | 7
19 | AUUCACCUAGGUCUUCGAGUG [Fam2.2 aminoacylation ribozyme variant] | 3.65 | 2.03 | 9.5 | 3.26 | 2.99 | 2.13
20 | AUUCACCUAGGUCUUCGGGCG [Fam2.2 aminoacylation ribozyme variant] | 5.23 | 2.8 | 13.6 | 2.99 | 3.94 | 2.83
21 | AUUCACCUAGGUCUUGGGGUG [Fam2.2 aminoacylation ribozyme variant] | 13.8 | 5.73 | 77.3 | 9.73 | 11.2 | 6.44
22 | AUUCACCUAGGUGAUCGCGUG [Fam2.2 aminoacylation ribozyme variant] | 4.17 | 2.69 | 14.6 | 2.83 | 2.86 | 2.31
23 | AUUCACCUAGGUGAUCGGGCG [Fam2.2 aminoacylation ribozyme variant] | 4.11 | 3.28 | 12.5 | 3.84 | 3.9 | 3.62
24 | AUUCACCUAGGUGAUGGGGUG [Fam2.2 aminoacylation ribozyme variant] | 2.81 | 2.02 | 14.4 | 2.65 | 2.65 | 2.21
25 | AUUCACCUAGGUGCUCGGGUG [Fam2.2 aminoacylation ribozyme variant] | 4.46 | 3.07 | 31.1 | 3.64 | 3.67 | 3.1
26 | AUUCACCUAGGUGUUCGGGUG [Fam2.2 aminoacylation ribozyme variant] | 4.31 | 2.79 | 21.7 | 3.74 | 3.31 | 2.93
